Experiment [1] addresses T1, zebavidin (Danio rerio, UniProt E7F650).
T1 sequence (E7F650 31-154): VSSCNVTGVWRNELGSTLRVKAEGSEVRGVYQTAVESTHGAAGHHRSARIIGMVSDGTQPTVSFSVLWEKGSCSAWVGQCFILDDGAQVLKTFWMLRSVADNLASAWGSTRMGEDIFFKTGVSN
In words: crystal structure at […] Å; direct and competitive ITC ([…] °C); [3H]biotin dissociation; native MS; DSC. In kind it is binding. The arrangement: gene avd; first 30 amino acids of the ORF replaced with OmpA signal peptide from Bordetella avium (secreted core); homotetramer.

The target in experiment [2] is T1, zebavidin. Put plainly: ITC ([…] °C). In kind it is binding. The arrangement: gene avd; first 30 amino acids of the ORF replaced with OmpA signal peptide from Bordetella avium (secreted core).
In experiment [3] the target is T1, zebavidin. Put plainly: fluorescence quenching titration ([…] °C). In kind it is binding. Details: gene avd; first 30 amino acids of the ORF replaced with OmpA signal peptide from Bordetella avium (secreted core).
Experiment [4] has as its target zebavidin (recombinant core, expressed in E. coli) (zebrafish (Danio rerio)). Put plainly: SEC; Superdex200 10/300GL, 4 °C, 50 mM sodium phosphate, 2 mM EDTA, pH 7 with 0, 100 or 650 mM NaCl, with and without biotin. In general terms: SEC sorts molecules by how far they enter the pores of the column.
Experiment [5] has the same target. Put plainly: native MS; ESI FT-ICR, 10 µM zebavidin (monomer) in 10 mM ammonium acetate, pH 7, without biotin.
Experiment [6] has the same target. In words: native MS; ESI FT-ICR, 10 µM zebavidin in 10 mM ammonium acetate, pH 7, with 30 µM biotin (3-fold molar excess).
Experiment [7] shares this target. Put plainly: native MS; ESI FT-ICR, 10 µM zebavidin in 500 mM ammonium acetate, in the absence and presence of 30 µM biotin.
Experiment [8] has the same target. In words: crystal structure; zebavidin in complex with biotin, 2.4 Å, space group P2(1)2(1)2, 16 monomers (four homotetramers) in the asymmetric unit.

This note sets out measurements from publication PMC3811995, “Zebavidin - An Avidin-Like Protein from Zebrafish” (PLoS ONE, 2013).

Values joined by “and” are separate entries in the source; they are usually repeats but may differ in a detail not shown here. Equal entries are not always repeated.

The term Kd denotes the free concentration of one partner at which half of the binding sites on the other are occupied at equilibrium, for simple one-to-one binding. With `O=C(O)CCCC[C@@H]1SC[C@@H]2NC(=O)N[C@@H]21` [BTN, biotin], the Kd on zebavidin [1] is listed as 4.8/4.4 x10^-9 M.
Regarding `C[C@@H]1NC(=O)N[C@@H]1CCCCCC(=O)O` [desthiobiotin], the Kd on zebavidin [2] is on record as 660/700 x10^-9 M.
ArcDia BF560 came in with a Kd on zebavidin [3] of 140 nM.
In general, stoichiometry N refers to the number of molecules, sites or subunits per partner or assembly. In the case of “zebavidin (recombinant core, expressed in E. coli) (natural protein)”, the stoichiometry N in experiment [4] is 4; in experiment [5] it was 2 and 4; in experiment [6], 4; in experiment [7] it was 4; in experiment [8] it was 4.
